Laboratory results: patent publication US7666414B2, “Methods for treating prostate cancer using modified antibodies to prostate-specific membrane antigen” (Cornell Research Foundation, Inc., priority 2001, dated 2010)
Read-outs that look alike come from different tables or passages of the source.

What was measured:
[1] = test system: micronucleated polychromatic erythrocytes; assay: Mouse micronucleus test; settings: in vivo
[2] = Pharmacokinetics of deJ591 and deJ591-DM1 in cynomolgus monkeys
[3] = test system: micronucleated polychromatic erythrocytes; settings: 30, 48, and 90 mg/m^2
[4] = male mice; for AUC, analyte Total deJ591 / AUC, analyte deJ591-DM1: 0-336 hours
[5] = test system: PSMA-positive 22RV1 xenografts; assay: Efficacy in castrate or intact scid mice bearing androgen-independent 22RV1 xenograft; assay type: in vivo, C.B-17 scid mice; settings: 12.93 mg/kg
Method: Prostate tumors can be broadly classified as either androgen-dependent or androgen-independent. […] The 22RV1 cell line was originally developed as androgen-independent and can be grown as a xenograft in C.B-17 scid mice that have been left either intact or castrated. […] C.B-17 scid mice bearing CWR22 xenografts approximately 200 mm^3 in size received IV injections (200 μL constant volume) of the test articles according to the dosage and schedule shown in the Table 24.

[6] = test system: LNCaP cells; assay: In vitro pharmacodynamics, LNCaP proliferation assay; assay type: cell-based, human; settings: 6-day exposure in tissue culture
Method: At the end of that period the drug containing media was removed and replaced with drug free media until a total of 144 hours elapsed from the start of the experiment. The resulting effect of drug exposure on proliferation was then determined.

[7] = test system: CD-1 mice
From the text: Use of both mice and cynomolgus monkeys for nonclinical testing allowed comparison of exposure and toxicity across species on the basis of body surface area (mg/m^2), and thus aided in selecting the SSD for the proposed Phase 1 clinical trial.

[8] = study CTBR 57355, deJ591-DM1 6 mg/kg (72 mg/m^2)
[9] = study CTBR 57355, deJ591-DM1 10 mg/kg (120 mg/m^2)
[10] = study CTBR 57355, deJ591-DM1 16 mg/kg ([…]^2)
[11] = study CTBR 57355, deJ591-DM1 30 mg/kg (360 mg/m^2)
[12] = study CTBR 57355, mean over dosages
[13] = study KLA W-171, deJ591-DM1 6 mg/kg (72 mg/m^2)
[14] = single IV deJ591-DM1 10 mg/kg (30 mg/m^2)
[15] = single IV deJ591-DM1 30 mg/kg (90 mg/m^2)
[16] = single IV deJ591-DM1 90 mg/kg (270 mg/m^2)
[17] = MLN2704 300 mg/m^2 (100 mg/kg), single IV, CD-1 mice

Q: With “deJ591-DM1: deJ591 conjugated via SPP disulfide linker to the maytansinoid DM1, DM1/antibody ratio about 3.5” as the substance, how does the “Lowest genotoxic dosage in ICR mice, DM1-Equivalents received” value [1] read?
A: 0.54 mg/m^2

Q: And the “Tmax, analyte Total deJ591” value [2, 8]?
A: 60 min

Q: What about the “Tmax, analyte deJ591-DM1” value [2, 8] of the same substance?
A: 48 min

Q: And the “AUC, analyte Total deJ591” value [2, 8]?
A: 17200 µg·h/mL

Q: What about the “AUC, analyte deJ591-DM1” value [2, 8] of the same substance?
A: 6720 µg·h/mL

Q: What about the “Tmax, analyte deJ591-DM1” value [2, 9] of the same substance?
A: 36 min

Q: What about the “t1/2, analyte Total deJ591” value [2, 9] of the same substance?
A: 200 h

Q: What about the “AUC, analyte Total deJ591” value [2, 9] of the same substance?
A: 31700 µg·h/mL

Q: And the “AUC, analyte deJ591-DM1” value [2, 9]?
A: 10600 µg·h/mL

Q: And the “Tmax, analyte Total deJ591” value [2, 10]?
A: 54 min

Q: And the “Tmax, analyte deJ591-DM1” value [2, 10]?
A: 48 min

Q: What about the “AUC, analyte Total deJ591” value [2, 10] of the same substance?
A: 44400 µg·h/mL

Q: What about the “AUC, analyte deJ591-DM1” value [2, 10] of the same substance?
A: 15600 µg·h/mL

Q: What about the “Tmax, analyte deJ591-DM1” value [2, 11] of the same substance?
A: 48 min

Q: And the “AUC, analyte Total deJ591” value [2, 11]?
A: 95000 µg·h/mL

Q: And the “AUC, analyte deJ591-DM1” value [2, 11]?
A: 33500 µg·h/mL

Q: What about the “Tmax, analyte Total deJ591” value [2, 12] of the same substance?
A: 54 min

Q: What about the “Tmax, analyte deJ591-DM1” value [2, 12] of the same substance?
A: 42 min

Q: And the “Tmax, analyte Total deJ591” value [2, 13]?
A: 300 min

Q: What about the “Tmax, analyte deJ591-DM1” value [2, 13] of the same substance?
A: 60 min

Q: What about the “AUC, analyte Total deJ591” value [2, 13] of the same substance?
A: 19900 µg·h/mL

Q: What about the “AUC, analyte deJ591-DM1” value [2, 13] of the same substance?
A: 5020 µg·h/mL

Q: And the “increases in micronucleated polychromatic erythrocytes” value [3]?
A: positive

Q: And the “Tmax, analyte Total deJ591” value [4, 14]?
A: 30 min

Q: And the “Tmax, analyte deJ591-DM1” value [4, 14]?
A: 30 min

Q: And the “AUC, analyte Total deJ591” value [4, 14]?
A: 8920 µg·h/mL

Q: And the “AUC, analyte deJ591-DM1” value [4, 14]?
A: 3260 µg·h/mL

Q: What about the “Tmax, analyte Total deJ591” value [4, 15] of the same substance?
A: 4.8 min

Q: What about the “Tmax, analyte deJ591-DM1” value [4, 15] of the same substance?
A: 4.8 min

Q: What about the “AUC, analyte Total deJ591” value [4, 15] of the same substance?
A: 21000 µg·h/mL

Q: And the “AUC, analyte deJ591-DM1” value [4, 15]?
A: 5960 µg·h/mL

Q: What about the “Tmax, analyte Total deJ591” value [4, 16] of the same substance?
A: 4.8 min

Q: What about the “Tmax, analyte deJ591-DM1” value [4, 16] of the same substance?
A: 4.8 min

Q: And the “AUC, analyte Total deJ591” value [4, 16]?
A: 62300 µg·h/mL

Q: What about the “AUC, analyte deJ591-DM1” value [4, 16] of the same substance?
A: 30600 µg·h/mL

Q: And the “Tumor Growth Delay” value ([5]; Castrate Mice, q3dX5)?
A: 26.3 days

Q: And the “Tumor Growth Delay” value ([5]; Intact Mice, q3dX5)?
A: 13.1 days

Q: What about the “Tumor Growth Delay” value ([5]; Intact Mice, q7dX5) of the same substance?
A: 7.8 days

Q: What about the “IC50 on PSMA-positive LNCaP cells” value [6] of the same substance?
A: 0.21 µg/mL

Q: And the “Degree of Toxicity and Major Target Organs” value (shortened to “Degree”) ([7]; 30 mg/m^2 (10 mg/kg))?
A: Mild toxicity to testes.

Q: What about the “Degree” value ([7]; 48 mg/m^2 (16 mg/kg)) of the same substance?
A: Mild to moderate toxicity to reproductive

Q: What about the “Degree” value ([7]; 90 mg/m^2 (30 mg/kg)) of the same substance?
A: Mild to moderate toxicity to reproductive,

Q: And the “Degree” value ([7]; 300 mg/m^2 (100 mg/kg))?
A: Moderate to severe toxicity to reproductive,

Q: And the mortality ([7]; 480 mg/m^2 (160 mg/kg))?
A: 100% mortality attributed to severe

Q: What about the “Degree” value ([7]; MLN2704 30 mg/m^2 (10 mg/kg), single IV, CD-1 mice) of the same substance?
A: Mild toxicity to testes.

Q: What about the “Degree” value ([7]; MLN2704 48 mg/m^2 (16 mg/kg), single IV, CD-1 mice) of the same substance?
A: Mild to moderate toxicity to

Q: What about the “elevated AST and ALT values” ([7]; MLN2704 90 mg/m^2 (30 mg/kg), single IV, CD-1 mice) of the same substance?
A: mitosis/necrosis of liver; slightly

Q: And the “elevated AST and ALT values” ([7]; MLN2704 180 mg/m^2 (60 mg/kg), single IV, CD-1 mice)?
A: mitosis/necrosis of liver; moderately

Q: And the “elevated AST and ALT values” [7, 17]?
A: mitosis/necrosis of liver; markedly

Q: And the mortality [7, 17]?
A: 30% mortality attributed to severe

Q: What about the “Degree” value ([7]; MLN2704 300 mg/m^2 (100 mg/kg), single IV, CD-1 mice, survivors) of the same substance?
A: toxicity. Moderate to severe toxicity to

Q: What about the mortality ([7]; MLN2704 480 mg/m^2 (160 mg/kg), single IV, CD-1 mice) of the same substance?
A: 100% mortality attributed to severe

Q: And the “Mouse LD10 (female)” value ([7]; calculated)?
A: 95 mg/kg

Q: What about the “Mouse LD10 (female), DM1-Equivalents received” value ([7]; calculated) of the same substance?
A: 5.13 mg/m^2

Q: What about the “Mouse LD10 (male)” value ([7]; calculated) of the same substance?
A: 96 mg/kg

Q: And the “Mouse LD10 (male), DM1-Equivalents received” value ([7]; calculated)?
A: 5.18 mg/m^2

Q: And the lower testes weights ([7]; lowest tested dosage 30 mg/m^2)?
A: 10%

Q: What about the “Mouse LD100” value ([7]; mouse, in vivo) of the same substance?
A: 160 mg/kg

Q: And the “Mouse MTD” value ([7]; mouse, in vivo)?
A: 60 mg/kg

Q: What about the “Mouse STD, DM1-Equivalents received” value ([7]; mouse, in vivo) of the same substance?
A: 5.40 mg/m^2

Q: What about the LD100 ([7]; single IV, CD-1 mice) of the same substance?
A: 160 mg/kg

Q: What about the MTD ([7]; single IV, CD-1 mice) of the same substance?
A: 60 mg/kg

Q: What about the “LD10 (females)” value ([7]; single IV, CD-1 mice, females, calculated) of the same substance?
A: 95 mg/kg

Q: And the “LD10 (males)” value ([7]; single IV, CD-1 mice, males, calculated)?
A: 96 mg/kg
